From a protein production outcome set (Wang et al. 2014) come the findings set out here.

The nature of this data set: label from the status in PepcDB records.
With “MKKSKRKNAQAQEAQETEVLVQEEAEELPEFPEGEPDPDLEDPDLTLEDDLLDLPEEGEGLDLEEEEEDLPIPKISTSDPVRQYLHEIGQVPLLTLEEEVELARKVEEGMEAIKKLSEITGLDPDLIREVVRAKILGSARVRHIPGLKETLDPKTVEEIDQKLKSLPKEHKRYLHIAREGEAARQHLIEANLRLVVSIAKKYTGRGLSFLDLIQEGNQGLIRAVEKFEYKRRFKFSTYATWWIRQAINRAIADQARTIRIPVHMVETINKLSRTARQLQQELGREPTYEEIAEAMGPGWDAKRVEETLKIAQEPVSLETPIGDEKDSFYGDFIPDEHLPSPVDAATQSLLSEELEKALSKLSEREAMVLKLRKGLIDGREHTLEEVGAFFGVTRERIRQIENKALRKLKYHESRTRKLRDFLD”, the protein production entry is “not failed”.

Take “MKKSNIKTLEQFKDQNYGKKGTAKRDSLEMGYDTFKIGALIQEARIEKGMTQEELAIKCGTTKSYISRIENNIKEVRISTLQKIVELGFGGQLQLSIKFLEHHHHHH”: the protein production entry was “not failed”. The entry for “MKKTGWGILGAVAAFTGYAYWSTKHLTVTDYEILSDKIPAEWDGATFVQLSDLHSASFGLYNNPLLSIVNELAPDAVFLTGDMIDGDESPFVTMAVVRKLAKEFPVFYVSGNHEGRSAFYEDFKADMEKHHVAVLENERYFLRKDGAAIMVAGVKDPRFVRDDWAEKELPKQVWEEEALKEALDEATANLSPDYFTILLAHRPEFWPLYQAYPVDLVLSGHAHGGQFRLPLTEGLFAPGQGFMPKWTAGLHSAGGKSLIVSRGLGNVTKLPRLFNDPEIIRITLKAKGDARENLEHHHHHH” is “failed”; for “MKKTLIALMLGTISFTTFANDYLPSGGYETLETRSGQLTFENGFEHGVPTNKTSQKLFDELDYQRAVQGYIWATPIVSFYKWKNDHYQTWGTENGQLVYQAGYESKLGGLTYNTSTPYLIGYMNLNNGPIVINLPDTQLRGAVHNMWQIGKEQMTKPGKYVIYKAGDVAPKVKGATLIAMDTNDFFFGVRLMNKDAKVRSTMMNSIQKGITDINGNQLTNKGIYHVKRGIDHKQPRGMEFWEVVNQAIQANPVQERDRMMMDMLRPLGIEKGKPFIPTPKQQSLLKEAAIVGEAMTKNIDFNKTGRLDHAEYGPKGNPWEIATASTPNQDRNNGMDLDGRAAWFYEAVTNDIAMHGMDNGGWGQVYLDNYYSGEKDHGLDGGKHYTLTIKNPNTYADLFWTITVYNVENRAIIENDLGRADVGSNIKGSVYNKDGSITLHFSPKKPKGVAEANWVQTNEKEGWFVYFRAYSPKKAFVDEEPKTLLPNFEEVK” it is “failed”. The entry for “MKKTRRILLGLALIIGLSVGAGCRSTASKSKTANASQSATTRTVTDMAGTKVKIPTKVTRVADLWHANNQVVLLLGGQKKLVATTQMIKQSPWFKTIDPGISRVTAPFAGDDLQTEELLKAKPDVVIAADTAQVKQARKAKIPTINAMYQTFAGLRQSVNLTAQVLGGTAPKIAKAYQKTLTTNLNDVKNRLKDVTFKPKVLHFVNATNLNQVDGTGTIVNEWIKAAGGQNALKQKGNMISVTTETLAKSDPDVIIVGSATTAEARAALKKNAVLSKLTAVKKNRVYGNPQGTFPWDRYSAEEALQVLWAAKKLHPDQFQDLNMVAKTKAFYQQFYHYQLSTAQANRLLNGASSPK” is “failed”; for “MKKVCLSLLMGLMVQMTFGQTLEKMQWFNEPEQWEIKNNVLSMSVTPQSDYWRISHYGFTVDDAPFYYATYGGEFEAKVKVVGEYKERFDQAGLMLRIDHENYIKAGIEFVDGKFNLSTVVTHKTSDWSVITLDKTVPYIWIKAVRRLDAVEIFYSFDDKTYTLMRNAWLQDHIPVKVGLMAACPDGSGFNAKFEYFQVKHLPDQRRVEWLKKNAELEHHHHHH” it is “failed”; for “MKKVIGAATATVFGLGAFTTTATAETIVTADVLNVREKPTTESKVVEKVKNGEELKVINTEDGWSKIELNGKEVFVSSEFTKDIYHVTADLLNVRSESNTESKILGRLKKDDVIESTNQVKDGWLQFEYKGKTAYVNVSFLSSKAPIEKKADEKTKQVAKVQKSVKAKEEAKTQKITKAKETIKPKEEVKVQEVAKPKEEVKVQEVAKPKEEVKVQEVAKPKEEVKVQEVVKPKEEVKVQEVVKPKEEVKVQEVAKAKEEAKVQEIAKAKEEAKAQEIAKAKEEAKAQEIAKAKEEAKAQEIAKAKEEAKAQEIAKAKEEAKAQEIAKAKEEAKAQEIAKAKEEAKAQEIAKAKEEAKAQEIAKAKEEAKAQEIAKAKEEAKEREIAKAKEEAKAREIAKAKEEEKAREALKAKEESKNNVQSAKRELTVVATAYTADPSENGTYGGRVLTAMGHDLTANPNMRIIAVDPKVIPLGSKVWVEGYGEAIAGDTGSAIKGNRIDVLMGSKSKAMNWGRQTVKVKILLEHHHHHH” it is “failed”.
